# T1: DLG3_1, Q92796
# T1 sequence (Q92796 125-227, limits assumed, looked up): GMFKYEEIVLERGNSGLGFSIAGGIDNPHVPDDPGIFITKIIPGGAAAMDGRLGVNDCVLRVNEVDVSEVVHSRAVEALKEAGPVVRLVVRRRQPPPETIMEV
# T2: PTPN13_1, Q12923
# T2 sequence (Q12923 1088-1188, limits assumed, looked up): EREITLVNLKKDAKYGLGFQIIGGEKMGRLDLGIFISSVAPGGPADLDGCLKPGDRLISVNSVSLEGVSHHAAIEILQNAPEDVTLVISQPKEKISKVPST
# T3: SNTA1, Q13424
# T3 sequence (Q13424 82-180, limits assumed, looked up): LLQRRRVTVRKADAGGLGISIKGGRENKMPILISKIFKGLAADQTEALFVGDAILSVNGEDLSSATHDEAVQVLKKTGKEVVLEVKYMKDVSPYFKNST
# T4: DFNB31_1, Q9P202
# T4 sequence (Q9P202 135-233, limits assumed, looked up): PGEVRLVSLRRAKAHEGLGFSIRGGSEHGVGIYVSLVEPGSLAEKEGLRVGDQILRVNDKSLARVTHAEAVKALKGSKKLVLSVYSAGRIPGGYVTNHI
# T5: APBA2_1, Q99767
# T5 sequence (Q99767 563-664, limits assumed, looked up): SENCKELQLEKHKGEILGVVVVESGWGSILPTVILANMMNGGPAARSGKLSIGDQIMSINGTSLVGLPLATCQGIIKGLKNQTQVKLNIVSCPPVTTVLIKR
# T6: SHANK1, Q9Y566
# T6 sequence (Q9Y566 658-767, limits assumed, looked up): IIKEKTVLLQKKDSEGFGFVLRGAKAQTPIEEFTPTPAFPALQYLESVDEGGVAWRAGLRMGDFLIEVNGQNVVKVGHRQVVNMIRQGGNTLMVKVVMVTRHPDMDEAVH
# T7: SIPA1L2, Q9P2F8
# T7 sequence (Q9P2F8 945-1036, limits assumed, looked up): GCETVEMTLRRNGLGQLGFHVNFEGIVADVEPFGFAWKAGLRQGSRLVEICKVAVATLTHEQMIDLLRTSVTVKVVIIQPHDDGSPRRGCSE
# T8: NHERF3_4, Q5T2W1
# T8 sequence (Q5T2W1 373-468, limits assumed, looked up): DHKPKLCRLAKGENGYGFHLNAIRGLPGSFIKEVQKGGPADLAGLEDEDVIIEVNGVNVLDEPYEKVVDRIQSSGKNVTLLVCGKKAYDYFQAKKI
# T9: DVL3, Q92997
# T9 sequence (Q92997 244-331, limits assumed, looked up): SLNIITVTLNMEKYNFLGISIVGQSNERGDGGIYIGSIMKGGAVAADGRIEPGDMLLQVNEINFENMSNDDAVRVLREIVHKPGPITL
# T10: APBA2_2, Q99767
# T10 sequence (Q99767 654-744, limits assumed, looked up): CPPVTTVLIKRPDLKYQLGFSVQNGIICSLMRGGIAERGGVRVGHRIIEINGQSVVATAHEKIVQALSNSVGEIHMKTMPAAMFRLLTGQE
# T11: PDZD7_3, Q9H5P4
# T11 sequence (Q9H5P4 857-944, limits assumed, looked up): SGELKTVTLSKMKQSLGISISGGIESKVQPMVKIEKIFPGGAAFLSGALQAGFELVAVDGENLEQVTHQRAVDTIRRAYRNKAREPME
# Assays:
# Experiment in all cases: holdup assay
# Design in all cases: key: below the threshold = too weak to quantify, mostly under pKd 3.1 to 4
# GRIP2_5, Q9C0E4 = target: GRIP2_5, Q9C0E4
# GRIP2_5, Q9C0E4, sequence (Q9C0E4 544-642): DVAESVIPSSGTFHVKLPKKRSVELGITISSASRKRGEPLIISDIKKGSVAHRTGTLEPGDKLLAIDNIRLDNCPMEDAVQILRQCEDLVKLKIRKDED
# PDLIM1, O00151 = target: PDLIM1, O00151
# PDLIM1, O00151, sequence (O00151 1-87): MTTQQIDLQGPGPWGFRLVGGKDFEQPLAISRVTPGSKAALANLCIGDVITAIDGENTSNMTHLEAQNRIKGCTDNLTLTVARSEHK
# TJP1_2, Q07157 = target: TJP1_2, Q07157
# TJP1_2, Q07157, sequence (Q07157 181-274): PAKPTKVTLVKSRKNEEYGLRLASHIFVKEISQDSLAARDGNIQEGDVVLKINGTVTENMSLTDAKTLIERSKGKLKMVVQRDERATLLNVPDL
# DLG3_1, Q92796 = target: T1, DLG3_1, Q92796
# PTPN13_1, Q12923 = target: T2, PTPN13_1, Q12923
# GRIP2_4, Q9C0E4 = target: GRIP2_4, Q9C0E4
# GRIP2_4, Q9C0E4, sequence (Q9C0E4 446-548): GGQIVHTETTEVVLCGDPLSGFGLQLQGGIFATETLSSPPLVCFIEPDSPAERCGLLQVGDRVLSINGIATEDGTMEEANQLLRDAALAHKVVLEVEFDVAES
# SNTA1, Q13424 = target: T3, SNTA1, Q13424
# MAST2, Q6P0Q8 = target: MAST2, Q6P0Q8
# MAST2, Q6P0Q8, sequence (Q6P0Q8 1099-1202): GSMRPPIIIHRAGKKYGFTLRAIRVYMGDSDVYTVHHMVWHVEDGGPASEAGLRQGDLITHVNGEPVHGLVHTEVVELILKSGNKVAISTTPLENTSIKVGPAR
# DLG4_2, P78352 = target: DLG4_2, P78352
# DLG4_2, P78352, sequence (P78352 155-259): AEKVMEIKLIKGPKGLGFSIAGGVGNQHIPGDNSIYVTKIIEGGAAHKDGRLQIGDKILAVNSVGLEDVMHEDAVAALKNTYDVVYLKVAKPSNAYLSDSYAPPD
# IL16_1, Q14005 = target: IL16_1, Q14005
# IL16_1, Q14005, sequence (Q14005 210-306): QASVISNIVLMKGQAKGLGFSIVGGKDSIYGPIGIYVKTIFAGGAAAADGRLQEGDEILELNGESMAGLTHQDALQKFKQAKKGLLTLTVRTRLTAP
# DFNB31_1, Q9P202 = target: T4, DFNB31_1, Q9P202
# HTRA2, O43464 = target: HTRA2, O43464
# HTRA2, O43464, sequence (O43464 355-458): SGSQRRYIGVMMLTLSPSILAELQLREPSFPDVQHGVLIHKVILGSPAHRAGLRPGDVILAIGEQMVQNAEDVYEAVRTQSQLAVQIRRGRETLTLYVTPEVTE
# APBA2_1, Q99767 = target: T5, APBA2_1, Q99767
# SHANK1, Q9Y566 = target: T6, SHANK1, Q9Y566
# SIPA1L2, Q9P2F8 = target: T7, SIPA1L2, Q9P2F8
# PTPN3, P26045 = target: PTPN3, P26045
# PTPN3, P26045, sequence (P26045 505-587): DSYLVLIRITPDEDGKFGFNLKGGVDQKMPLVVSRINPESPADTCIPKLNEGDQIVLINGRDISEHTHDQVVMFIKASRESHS
# MAGI1_2, Q96QZ7 = target: MAGI1_2, Q96QZ7
# MAGI1_2, Q96QZ7, sequence (Q96QZ7 456-580): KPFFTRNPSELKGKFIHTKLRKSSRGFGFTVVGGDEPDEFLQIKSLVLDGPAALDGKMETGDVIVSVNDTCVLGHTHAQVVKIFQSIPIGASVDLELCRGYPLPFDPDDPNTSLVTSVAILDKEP
# NHERF3_4, Q5T2W1 = target: T8, NHERF3_4, Q5T2W1
# MAGI2_4, Q86UL8 = target: MAGI2_4, Q86UL8
# MAGI2_4, Q86UL8, sequence (Q86UL8 772-865): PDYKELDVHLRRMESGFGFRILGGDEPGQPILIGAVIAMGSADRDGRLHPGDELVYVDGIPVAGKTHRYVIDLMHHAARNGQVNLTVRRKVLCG
# DVL3, Q92997 = target: T9, DVL3, Q92997
# APBA2_2, Q99767 = target: T10, APBA2_2, Q99767
# ARHGEF12, Q9NZN5-2 = target: ARHGEF12, Q9NZN5-2
# ARHGEF12, Q9NZN5-2, sequence (Q9NZN5 other isoform, or with tags, fused parts or gaps): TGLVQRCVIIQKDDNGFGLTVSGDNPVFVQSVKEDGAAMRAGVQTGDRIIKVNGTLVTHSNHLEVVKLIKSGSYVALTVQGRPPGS
# TJP1_3, Q07157 = target: TJP1_3, Q07157
# TJP1_3, Q07157, sequence (Q07157 416-512): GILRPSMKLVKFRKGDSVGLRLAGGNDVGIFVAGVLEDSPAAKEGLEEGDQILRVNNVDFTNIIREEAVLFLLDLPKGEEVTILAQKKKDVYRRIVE
# Inadl_9, Q8NI35 = target: Inadl_9, Q8NI35
# Inadl_9, Q8NI35, sequence (Q8NI35 1530-1615): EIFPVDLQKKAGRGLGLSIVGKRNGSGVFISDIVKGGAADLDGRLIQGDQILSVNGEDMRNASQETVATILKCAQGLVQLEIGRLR
# DLG4_1, P78352 = target: DLG4_1, P78352
# DLG4_1, P78352, sequence (P78352 62-152): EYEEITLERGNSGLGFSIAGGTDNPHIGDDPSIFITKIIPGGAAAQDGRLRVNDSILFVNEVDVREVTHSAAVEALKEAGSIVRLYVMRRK
# PDZD7_3, Q9H5P4 = target: T11, PDZD7_3, Q9H5P4
# [1] = plain residues with an end cap or a label only (N-terminal biotin on a linker: ahx)
# [2] = plain residues with an end cap or a label only (N-terminal biotin on a linker: ttds)
binder,measurement,setting,value
"YNSFLSVTTV [PDZRN3, Q9UPQ7]",pKd,"GRIP2_5, Q9C0E4; [1]",below the threshold
same,pKd,"PDLIM1, O00151; [1]",below the threshold
same,pKd,"TJP1_2, Q07157; [1]",below the threshold
same,pKd,"DLG3_1, Q92796; [1]",below the threshold
same,pKd,"PTPN13_1, Q12923; [1]",below the threshold
same,pKd,"GRIP2_4, Q9C0E4; [1]",below the threshold
same,pKd,"SNTA1, Q13424; [1]",3.76
same,pKd,"MAST2, Q6P0Q8; [1]",4.46
same,pKd,"DLG4_2, P78352; [1]",4.15
same,pKd,"IL16_1, Q14005; [1]",below the threshold
same,pKd,"DFNB31_1, Q9P202; [1]",below the threshold
same,pKd,"HTRA2, O43464; [1]",3.48
same,pKd,"APBA2_1, Q99767; [1]",below the threshold
same,pKd,"SHANK1, Q9Y566; [1]",3.66
same,pKd,"SIPA1L2, Q9P2F8; [1]",below the threshold
same,pKd,"PTPN3, P26045; [1]",3.48
same,pKd,"MAGI1_2, Q96QZ7; [1]",3.99
same,pKd,"NHERF3_4, Q5T2W1; [1]",3.63
same,pKd,"MAGI2_4, Q86UL8; [1]",4.56
same,pKd,"DVL3, Q92997; [1]",below the threshold
same,pKd,"APBA2_2, Q99767; [1]",below the threshold
same,pKd,"ARHGEF12, Q9NZN5-2; [1]",4.25
same,pKd,"TJP1_3, Q07157; [1]",below the threshold
same,pKd,"Inadl_9, Q8NI35; [1]",below the threshold
same,pKd,"DLG4_1, P78352; [1]",3.84
same,pKd,"PDZD7_3, Q9H5P4; [1]",5.58
"KLVIKTETTV [RASSF6, Q6ZTQ3]",pKd,"GRIP2_5, Q9C0E4; [2]",below the threshold
same,pKd,"PDLIM1, O00151; [2]",below the threshold
same,pKd,"TJP1_2, Q07157; [2]",below the threshold
same,pKd,"DLG3_1, Q92796; [2]",4.52
same,pKd,"PTPN13_1, Q12923; [2]",below the threshold
same,pKd,"GRIP2_4, Q9C0E4; [2]",below the threshold
same,pKd,"SNTA1, Q13424; [2]",4.36
same,pKd,"MAST2, Q6P0Q8; [2]",5.13
same,pKd,"DLG4_2, P78352; [2]",5.48
same,pKd,"IL16_1, Q14005; [2]",below the threshold
same,pKd,"DFNB31_1, Q9P202; [2]",below the threshold
same,pKd,"HTRA2, O43464; [2]",below the threshold
same,pKd,"APBA2_1, Q99767; [2]",below the threshold
same,pKd,"SHANK1, Q9Y566; [2]",below the threshold
same,pKd,"SIPA1L2, Q9P2F8; [2]",below the threshold
same,pKd,"PTPN3, P26045; [2]",4.44
same,pKd,"MAGI1_2, Q96QZ7; [2]",4.82
same,pKd,"NHERF3_4, Q5T2W1; [2]",below the threshold
same,pKd,"MAGI2_4, Q86UL8; [2]",4.45
same,pKd,"DVL3, Q92997; [2]",below the threshold
same,pKd,"APBA2_2, Q99767; [2]",below the threshold
same,pKd,"ARHGEF12, Q9NZN5-2; [2]",3.82
same,pKd,"TJP1_3, Q07157; [2]",below the threshold
same,pKd,"Inadl_9, Q8NI35; [2]",3.54
same,pKd,"DLG4_1, P78352; [2]",5.04
same,pKd,"PDZD7_3, Q9H5P4; [2]",4.39
"PFRSRSPSEV [GPR6, P46095]",pKd,"GRIP2_5, Q9C0E4; [2]",below the threshold
same,pKd,"PDLIM1, O00151; [2]",below the threshold
same,pKd,"TJP1_2, Q07157; [2]",below the threshold
same,pKd,"DLG3_1, Q92796; [2]",below the threshold
same,pKd,"PTPN13_1, Q12923; [2]",below the threshold
same,pKd,"GRIP2_4, Q9C0E4; [2]",below the threshold
same,pKd,"SNTA1, Q13424; [2]",below the threshold
same,pKd,"MAST2, Q6P0Q8; [2]",below the threshold
same,pKd,"DLG4_2, P78352; [2]",3.75
same,pKd,"IL16_1, Q14005; [2]",below the threshold
same,pKd,"DFNB31_1, Q9P202; [2]",below the threshold
same,pKd,"HTRA2, O43464; [2]",below the threshold
same,pKd,"APBA2_1, Q99767; [2]",below the threshold
same,pKd,"SHANK1, Q9Y566; [2]",below the threshold
same,pKd,"SIPA1L2, Q9P2F8; [2]",below the threshold
same,pKd,"PTPN3, P26045; [2]",3.95
same,pKd,"MAGI1_2, Q96QZ7; [2]",below the threshold
same,pKd,"NHERF3_4, Q5T2W1; [2]",below the threshold
same,pKd,"MAGI2_4, Q86UL8; [2]",below the threshold
same,pKd,"DVL3, Q92997; [2]",3.6
same,pKd,"APBA2_2, Q99767; [2]",below the threshold
same,pKd,"ARHGEF12, Q9NZN5-2; [2]",below the threshold
same,pKd,"TJP1_3, Q07157; [2]",below the threshold
same,pKd,"Inadl_9, Q8NI35; [2]",3.47
same,pKd,"DLG4_1, P78352; [2]",below the threshold
same,pKd,"PDZD7_3, Q9H5P4; [2]",below the threshold

# Source: publication PMC9482650, “Quantitative fragmentomics allow affinity mapping of interactomes” (Nature Communications, 2022)
